The record followed here is US20250101098A1 (R P SCHERER TECHNOLOGIES, published 2025).

The term EC50 denotes the concentration that produces a half-maximal response.

Experiment [1] deals with T1, human nectin-4 protein expressed on the surface of cells (human, UniProt Q96NY8 32-510). Description: cell-based or functional assay.
Experiment [2] deals with T2, rat nectin-4 protein expressed on the surface of HEK 293 cells (rat, UniProt D3ZET1 31-509).
T2 construct: whole, on cells
T2 sequence: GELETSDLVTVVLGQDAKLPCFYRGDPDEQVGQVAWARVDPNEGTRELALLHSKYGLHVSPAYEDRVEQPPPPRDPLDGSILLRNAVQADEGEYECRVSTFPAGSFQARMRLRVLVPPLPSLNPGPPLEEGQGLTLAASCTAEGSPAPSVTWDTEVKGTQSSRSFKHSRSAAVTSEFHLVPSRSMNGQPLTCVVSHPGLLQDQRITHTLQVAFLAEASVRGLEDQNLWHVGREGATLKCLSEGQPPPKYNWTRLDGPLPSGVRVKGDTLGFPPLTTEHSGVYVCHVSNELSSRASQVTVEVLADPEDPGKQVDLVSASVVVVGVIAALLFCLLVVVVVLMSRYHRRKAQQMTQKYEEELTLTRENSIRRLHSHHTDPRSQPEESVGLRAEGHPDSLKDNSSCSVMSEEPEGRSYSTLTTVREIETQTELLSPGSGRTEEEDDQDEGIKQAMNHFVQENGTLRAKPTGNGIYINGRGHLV
Description: flow cytometry, HEK 293 cells overexpressing the target. On the procedure:
(§1) Human embryonic kidney (HEK) 293 cells overexpressing human, cynomolgus monkey, rat, or mouse nectin-4 protein were produced. Cells were lifted with Versene to preserve cell surface proteins and were resuspended at 10e6/mL in PBS+2% FBS. 100 μl was added to a flow tube to test […]. Primary antibodies were diluted to […] and 10 μL was added for a total of 1 μg/test. Primary antibodies (or ADCs) were incubated with cells for 1 h on ice. Then, cells were washed 1× in 2 mL PBS+2% FBS and secondary antibody was added for detection. AF488-conjugated anti-human antibody from Jackson Immunoresearch, diluted according to the manufacturer's instructions+50% glycerol, was used at 1 μL/test-diluted to ⅕ the concentration in PBS+2% FBS and 5 μL were added per tube. The secondary reagent was incubated with the cells for 30 min, then cells were washed 2× in PBS+2% FBS and analyzed by flow cytometry on a BD FacsCanto instrument equipped with FACSDiva software.
(§2) Lead clones were tested for binding to human, cynomolgus monkey, rat, or mouse nectin-4 protein expressed on the surface of HEK 293 cells. Enfortumab was included as a positive control and an anti-FITC reactive antibody was included as a negative control.

Experiment [3] deals with T3, mouse nectin-4 protein expressed on the surface of HEK 293 cells (mouse, UniProt Q8R007 31-508).
T3 construct: whole, on cells
T3 sequence (looked up): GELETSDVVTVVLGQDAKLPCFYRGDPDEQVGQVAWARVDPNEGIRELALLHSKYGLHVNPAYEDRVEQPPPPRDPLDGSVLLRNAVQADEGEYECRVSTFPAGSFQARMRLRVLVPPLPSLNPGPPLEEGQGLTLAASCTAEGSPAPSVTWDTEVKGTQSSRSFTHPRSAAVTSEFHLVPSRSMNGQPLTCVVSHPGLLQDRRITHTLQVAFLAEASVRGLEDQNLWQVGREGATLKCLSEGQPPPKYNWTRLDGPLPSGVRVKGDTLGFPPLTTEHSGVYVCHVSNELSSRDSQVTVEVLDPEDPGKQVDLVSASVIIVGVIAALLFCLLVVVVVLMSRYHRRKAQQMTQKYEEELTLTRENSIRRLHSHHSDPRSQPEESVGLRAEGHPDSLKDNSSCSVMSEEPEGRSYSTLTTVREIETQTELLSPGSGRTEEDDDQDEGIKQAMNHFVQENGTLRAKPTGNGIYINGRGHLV
Described as above. On the procedure: as §1, §2

In experiment [4] the target is T4, cynomolgus monkey nectin-4 protein expressed on the surface of HEK 293 cells (cynomolgus monkey, UniProt A0A2K5WES1 32-510).
T4 construct: whole, on cells
T4 sequence: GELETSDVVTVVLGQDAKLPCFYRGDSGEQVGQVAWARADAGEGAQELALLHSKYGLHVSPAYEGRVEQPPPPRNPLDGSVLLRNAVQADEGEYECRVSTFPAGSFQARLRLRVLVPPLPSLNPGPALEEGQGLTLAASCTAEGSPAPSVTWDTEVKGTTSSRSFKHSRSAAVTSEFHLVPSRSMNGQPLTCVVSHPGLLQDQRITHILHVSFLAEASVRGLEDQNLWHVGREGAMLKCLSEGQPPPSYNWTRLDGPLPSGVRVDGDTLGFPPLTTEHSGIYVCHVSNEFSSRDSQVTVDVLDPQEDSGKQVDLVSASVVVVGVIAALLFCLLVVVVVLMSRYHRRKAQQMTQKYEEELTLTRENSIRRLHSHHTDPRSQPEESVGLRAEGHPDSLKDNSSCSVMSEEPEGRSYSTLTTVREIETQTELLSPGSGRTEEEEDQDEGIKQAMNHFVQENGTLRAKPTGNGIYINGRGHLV
The experiment is described as above. The procedure:
as §1, §2

In experiment [5] the target is T1, human nectin-4 protein expressed on the …. The experiment is described as above. The procedure: as §1, §2
Experiment [6] addresses T5, human nectin-4 protein expressed on the surface of cells (human, UniProt Q96NY8 32-510).
T5 sequence: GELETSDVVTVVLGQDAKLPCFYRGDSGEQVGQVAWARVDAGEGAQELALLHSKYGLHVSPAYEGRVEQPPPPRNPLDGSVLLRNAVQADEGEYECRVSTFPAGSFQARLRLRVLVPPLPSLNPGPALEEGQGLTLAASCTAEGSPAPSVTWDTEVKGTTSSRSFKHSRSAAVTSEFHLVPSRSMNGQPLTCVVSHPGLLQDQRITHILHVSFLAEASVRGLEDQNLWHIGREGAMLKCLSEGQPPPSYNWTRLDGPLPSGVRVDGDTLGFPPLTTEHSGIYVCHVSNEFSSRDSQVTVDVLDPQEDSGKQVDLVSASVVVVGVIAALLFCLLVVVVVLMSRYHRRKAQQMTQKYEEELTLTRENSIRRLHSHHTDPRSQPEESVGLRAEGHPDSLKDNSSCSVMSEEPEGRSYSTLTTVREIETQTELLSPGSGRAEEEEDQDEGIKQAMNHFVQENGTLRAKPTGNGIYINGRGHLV
Description: cell-based or functional assay. The source holds these as a separate data set.

Experiment [7] deals with T5, human nectin-4 protein expressed on the …. Description: cell-based or functional assay. This is another data set of the same source.
Experiment [8] deals with T6, recombinant human Nectin-4-His protein (human, UniProt Q96NY8 32-349).
T6 construct: Rescreening antigen and bought ELISA antigen are treated as one molecule; also called human Nectin-4-His tagged; Ag1; not shown: His tag
T6 sequence: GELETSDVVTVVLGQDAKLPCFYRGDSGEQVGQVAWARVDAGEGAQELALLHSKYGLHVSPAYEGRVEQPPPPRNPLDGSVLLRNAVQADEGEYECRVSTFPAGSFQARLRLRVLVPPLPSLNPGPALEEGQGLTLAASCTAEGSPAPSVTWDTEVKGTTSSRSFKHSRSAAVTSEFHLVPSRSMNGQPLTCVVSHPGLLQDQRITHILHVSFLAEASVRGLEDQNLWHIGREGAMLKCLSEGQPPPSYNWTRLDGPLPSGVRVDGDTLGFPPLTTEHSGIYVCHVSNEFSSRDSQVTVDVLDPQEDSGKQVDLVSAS
Description: ELISA, coated antigen. (In general: An ELISA detects its analyte on a solid surface through an enzyme-linked reagent.)

For experiment [9], the target named is T5, human nectin-4 protein expressed on the …. Description: flow cytometry, HEK 293 cells overexpressing the target. On the procedure:
as §1, §2
A general note: A flow cytometer gives signals particle by particle.

Experiment [10] concerns the target T6, recombinant human Nectin-4-His protein. Description: ELISA, recombinant antibody on coated antigen.

B1: Enfortumab (antibody, V domains shown)
VH: EVQLVESGGGLVQPGGSLRLSCAASGFTFSSYNMNWVRQAPGKGLEWVSYISSSSSTIYYADSVKGRFTISRDNAKNSLSLQMNSLRDEDTAVYYCARAYYYGMDVWGQGTTVTVSS
VL: DIQMTQSPSSVSASVGDRVTITCRASQGISGWLAWYQQKPGKAPKFLIYAASTLQSGVPSRFSGSGSGTDFTLTISSLQPEDFATYYCQQANSFPPTFGGGTKVEIKR
In the case of B1, in experiment [1], the “IC50, in vitro potency, HEK Cells + Nectin-4” value is 0.685 nM. Moreover, the Flow data in experiment [2] was found to be 45500; in experiment [3], 3220; in experiment [4], 20000; in experiment [5], 17100.

B2: Nectin-4 5D9H/5D9L (recombinant chimeric antibody) (antibody, V domains shown)
VH: QVQLKQSGPGLVQPSQSLSITCTVSGFSLTNYGVHWVRQSPGKGLEWLGVIWSGGSTDYNAAFVSRLSISRDNSKSQVFFKMNSLQADDTAIYYCARSGKWYYFDYWGQGTTLTVSS
VL: DIQMTQSPASLSVSVGETVTITCRASENIYSNLAWYQQKQGKSPQLLVYAATNLADGVPSRFSGSGSGTQYSLKINSLQSEDFGSYYCQHFWGTPTFGGGTKLEIK
notes: also called Nectin-4 5D9 chimeric mAb
Consider B2, for which the “IC50, in vitro potency, HEK Cells + Nectin-4” value in [6] stood at 0.446 nM. For the same molecule, the “Cell kill IC50, HekNectin4” value in experiment [7] turned out to be 0.207 nM. Besides, the “Cell kill IC50, MDA-MB468” value in [7] stood at 1.31 nM. In addition, the “Cell kill IC50, SKBR3” value in [7] amounted to 8.47 nM. The EC50 turned out to be 0.191 nM in experiment [8] and 0.192 nM in [10]. For the same molecule, the Flow data in experiment [2] was 2140; in [3], 189; in experiment [4], 12600; in [9], 11200.
